Data on 57 molecules can be found in patent US20240400708A1.

One may read the Kd as the constant that tells how readily two partners part at equilibrium.

B1: feline IgG1a wild-type (WT) (antibody, part only; not given: Variable domains, not shown: another chain or arm of the molecule)
constant: ASTTAPSVFPLAPSCGTTSGATVALACLVLGYFPEPVTVSWNSGALTSGVHTFPAVLQASGLYSLSSMVTVPSSRWLSDTFTCNVAHPPSNTKVDKTVRKTDHPPGPKPCDCPKCPPPEMLGGPSIFIFPPKPKDTLSISRTPEVTCLVVDLGPDDSDVQITWFVDNTQVYTAKTSPREEQFNSTYRVVSVLPILHQDWLKGKEFKCKVNSKSLPSPIERTISKAKGQPHEPQVYVLPPAQEELSRNKVSVTCLIKSFHPPDIAVEWEITGQPEPENNYRTTPPQLDSDGTYFVYSKLSVDRSHWQRGNTYTCSVSHEALHSHHTQKSLTQSPGK
B2: feline IgG1a S252P (antibody, part only; not given: Variable domains, not shown: another chain or arm of the molecule)
constant: B1 constant with S138P
B3: feline IgG1a S254H (antibody, part only; not given: Variable domains, not shown: another chain or arm of the molecule)
constant: B1 constant with S140H
B4: feline IgG1a S254D (antibody, part only; not given: Variable domains, not shown: another chain or arm of the molecule)
constant: B1 constant with S140D
B5: feline IgG1a A378Y (antibody, part only; not given: Variable domains, not shown: another chain or arm of the molecule; small tags and cut ends)
constant: B1 constant with A264Y
B6: feline IgG1a S254A (antibody, part only; not given: Variable domains, not shown: another chain or arm of the molecule)
constant: B1 constant with S140A
B7: feline IgG1a S252M (antibody, part only; not given: Variable domains, not shown: another chain or arm of the molecule)
constant: B1 constant with S138M
B8: feline IgG1a S428L (antibody, part only; not given: Variable domains, not shown: another chain or arm of the molecule)
constant: B1 constant with S316L
B9: feline IgG1a S428N (antibody, part only; not given: Variable domains, not shown: another chain or arm of the molecule; small tags and cut ends)
constant: B1 constant with S316N
B10: feline IgG1a S428D (antibody, part only; not given: Variable domains, not shown: another chain or arm of the molecule)
constant: B1 constant with S316D
B11: feline IgG1a A378R (antibody, part only; not given: Variable domains, not shown: another chain or arm of the molecule)
constant: B1 constant with A264R
B12: feline IgG1a S254M (antibody, part only; not given: Variable domains, not shown: another chain or arm of the molecule)
constant: B1 constant with S140M
B13: feline IgG1a S252T (antibody, part only; not given: Variable domains, not shown: another chain or arm of the molecule)
constant: B1 constant with S138T
B14: feline IgG1a S252E (antibody, part only; not given: variable domains, not shown: another chain or arm of the molecule)
constant: B1 constant with S138E
B15: feline IgG1a S428A (antibody, part only; not given: Variable domains, not shown: another chain or arm of the molecule)
constant: B1 constant with S316A
B16: feline IgG1a S428P (antibody, part only; not given: Variable domains, not shown: another chain or arm of the molecule; small tags and cut ends)
constant: B1 constant with S316P
B17: feline IgG1a S428T (antibody, part only; not given: Variable domains, not shown: another chain or arm of the molecule; small tags and cut ends)
constant: B1 constant with S316T
B18: feline IgG1a A378T (antibody, part only; not given: Variable domains, not shown: another chain or arm of the molecule; small tags and cut ends)
constant: B1 constant with A264T
B19: feline IgG1a A378W (antibody, part only; not given: Variable domains, not shown: another chain or arm of the molecule; small tags and cut ends)
constant: B1 constant with A264W
B20: feline IgG1a S428W (antibody, part only; not given: Variable domains, not shown: another chain or arm of the molecule; small tags and cut ends)
constant: B1 constant with S316W
B21: feline IgG1a A378Q (antibody, part only; not given: Variable domains, not shown: another chain or arm of the molecule)
constant: B1 constant with A264Q
B22: feline IgG1a S254E (antibody, part only; not given: Variable domains, not shown: another chain or arm of the molecule)
constant: B1 constant with S140E
B23: feline IgG1a S252K (antibody, part only; not given: variable domains and light chain, not shown: another chain or arm of the molecule)
constant: B1 constant with S138K
B24: feline IgG1a S428E (antibody, part only; not given: Variable domains, not shown: another chain or arm of the molecule)
constant: B1 constant with S316E
B25: feline IgG1a S252W (antibody, part only; not given: Variable domains, not shown: another chain or arm of the molecule)
constant: B1 constant with S138W
B26: feline IgG1a S428K (antibody, part only; not given: Variable domains, not shown: another chain or arm of the molecule)
constant: B1 constant with S316K
B27: feline IgG1a S434H (antibody, part only; not given: variable domains and light chain, not shown: another chain or arm of the molecule; small tags and cut ends)
constant: B1 constant with S322H
B28: feline IgG1a S428V (antibody, part only; not given: Variable domains, not shown: another chain or arm of the molecule; small tags and cut ends)
constant: B1 constant with S316V
B29: feline IgG1a S252C (antibody, part only; not given: Variable domains, not shown: another chain or arm of the molecule; small tags and cut ends)
constant: B1 constant with S138C
B30: feline IgG1a S434L (antibody, part only; not given: Variable domains, not shown: another chain or arm of the molecule)
constant: B1 constant with S322L
B31: feline IgG1a A378V (antibody, part only; not given: Variable domains, not shown: another chain or arm of the molecule; small tags and cut ends)
constant: B1 constant with A264V
B32: feline IgG1a S252D (antibody, part only; not given: Variable domains, not shown: another chain or arm of the molecule; small tags and cut ends)
constant: B1 constant with S138D
B33: feline IgG1a S428R (antibody, part only; not given: Variable domains, not shown: another chain or arm of the molecule; small tags and cut ends)
constant: B1 constant with S316R
B34: feline IgG1a S254L (antibody, part only; not given: variable domains and light chain, not shown: another chain or arm of the molecule)
constant: B1 constant with S140L
B35: feline IgG1a S428C (antibody, part only; not given: Variable domains, not shown: another chain or arm of the molecule)
constant: B1 constant with S316C
B36: feline IgG1a S428F (antibody, part only; not given: Variable domains, not shown: another chain or arm of the molecule)
constant: B1 constant with S316F
B37: feline IgG1a S252G (antibody, part only; not given: Variable domains, not shown: another chain or arm of the molecule)
constant: B1 constant with S138G
B38: feline IgG1a S428Q (antibody, part only; not given: Variable domains, not shown: another chain or arm of the molecule; small tags and cut ends)
constant: B1 constant with S316Q
B39: feline IgG1a S252A (antibody, part only; not given: Variable domains, not shown: another chain or arm of the molecule; small tags and cut ends)
constant: B1 constant with S138A
B40: feline IgG1a S434N (antibody, part only; not given: Variable domains, not shown: another chain or arm of the molecule)
constant: B1 constant with S322N
B41: feline IgG1a S254K (antibody, part only; not given: Variable domains, not shown: another chain or arm of the molecule)
constant: B1 constant with S140K
B42: feline IgG1a S434M (antibody, part only; not given: Variable domains, not shown: another chain or arm of the molecule)
constant: B1 constant with S322M
B43: feline IgG1a S434K (antibody, part only; not given: variable domains and light chain, not shown: another chain or arm of the molecule)
constant: B1 constant with S322K
B44: feline IgG1a S252I (antibody, part only; not given: Variable domains, not shown: another chain or arm of the molecule)
constant: B1 constant with S138I
B45: feline IgG1a S254F (antibody, part only; not given: Variable domains, not shown: another chain or arm of the molecule)
constant: B1 constant with S140F
B46: feline IgG1a A378S (antibody, part only; not given: Variable domains, not shown: another chain or arm of the molecule)
constant: B1 constant with A264S
B47: feline IgG1a S428G (antibody, part only; not given: Variable domains, not shown: another chain or arm of the molecule)
constant: B1 constant with S316G
B48: feline IgG1a S428H (antibody, part only; not given: Variable domains, not shown: another chain or arm of the molecule)
constant: B1 constant with S316H
B49: feline IgG1a S252V (antibody, part only; not given: Variable domains, not shown: another chain or arm of the molecule)
constant: B1 constant with S138V
B50: feline IgG1a S252N (antibody, part only; not given: variable domains, not shown: another chain or arm of the molecule)
constant: B1 constant with S138N
B51: feline IgG1a S434I (antibody, part only; not given: Variable domains, not shown: another chain or arm of the molecule)
constant: B1 constant with S322I
B52: feline IgG1a S252L (antibody, part only; not given: Variable domains, not shown: another chain or arm of the molecule)
constant: B1 constant with S138L
B53: feline IgG1a S428I (antibody, part only; not given: Variable domains, not shown: another chain or arm of the molecule)
constant: B1 constant with S316I
B54: feline IgG1a S434P (antibody, part only; not given: Variable domains, not shown: another chain or arm of the molecule)
constant: B1 constant with S322P
B55: feline IgG1a S254G (antibody, part only; not given: Variable domains, not shown: another chain or arm of the molecule)
constant: B1 constant with S140G
B56: feline IgG1a S252Q (antibody, part only; not given: Variable domains, not shown: another chain or arm of the molecule)
constant: B1 constant with S138Q

Positions count from the first letter of the chain named. In names and notes the source's numbering stands.

The test deals with feline FcRn complex (FcRn-α subunit and β-microglobulin), biotin labeled (feline). The test can be described thus: SPR, pH 6. A general note: In SPR one partner is held on a chip, and binding of the other changes the refractive index at the surface.
feline IgG1a S434Q (antibody): the equilibrium dissociation constant (Kd) is 4.8 nM. In other words, the single-digit nanomolar range.
B1 registered a Kd of 20.2 nM.
Molecule B2 registered a Kd of 7030 nM.
Take B3: the Kd was determined as 1850 nM.
In turn, B4 came in with a Kd of 474 nM. Against the preceding molecule, the Kd is about 3.9-fold lower.
Next, B5: 69.6 nM.
On to B6, for which the Kd amounted to 53 nM. The Kd values of the last two molecules are within 1.5-fold of each other.
B7 showed a Kd of 55 nM.
Next, B8: 81.5 nM.
The molecule B9 registered a Kd of 42.9 nM.
Molecule B10 returned a Kd of 362 nM.
Turning to B11, the Kd was found to be 36.2 nM.
As for B12, the Kd was 101 nM.
In turn, B13 showed a Kd of 1190 nM.
Next, B14: 163 nM.
As to B15, the Kd was 119 nM.
Take B16: the Kd stood at 18 nM. This Kd is about 6.6-fold lower than that of the molecule before.
The molecule B17 gave an equilibrium dissociation constant (Kd) of 27.3 nM.
Next, B18: 59.2 nM.
On to B19, for which the Kd worked out at 91 nM.
Next, B20: 36.4 nM; B21: 49 nM; B22: 0.711 nM.
In the case of B23, the Kd was 53.7 nM.
Turning to B24, the Kd was 184 nM.
For B25, the Kd turned out to be 80.3 nM.
With B26, the Kd stood at 70.2 nM.
With B27, the Kd amounted to 1.02 nM. Against the preceding molecule, the Kd is about 69-fold lower.
In turn, B28 had a Kd of 19.2 nM.
In the case of B29, the Kd is 922 nM. Compared with the last molecule, the Kd is about 48-fold higher.
B30 returned a Kd of 8.67 nM.
B31 had a dissociation constant (Kd) of 42.9 nM.
B32 yielded a Kd of 93.5 nM.
Next, B33: 68.6 nM; B34: 42.7 nM.
The molecule B35 showed a Kd of 61.4 nM.
Regarding B36, the Kd is 83.9 nM. The Kd values of the last two molecules are within 1.5-fold of each other.
Take B37: the Kd was found to be 49.8 nM.
Take B38: the Kd was determined as 38.3 nM.
On to B39, for which the Kd amounted to 27.1 nM.
B40 registered a Kd of 6.94 nM.
For the molecule B41, the Kd was 46.5 nM. This Kd lies about 6.7-fold higher than the previous one.
Molecule B42 displayed a Kd of 2.8 nM.
Molecule B43 returned a dissociation constant (Kd) of 6.76 nM.
With B44, the Kd is 156 nM.
Regarding B45, the Kd was determined as 568 nM.
B46 registered a Kd of 48.3 nM. This Kd is about 12-fold lower than that of the molecule before.
Consider B47, for which the Kd came out at 46.3 nM.
Next, B48: 41.6 nM.
With B49, the Kd was determined as 4470 nM.
In the case of B50, the dissociation constant (Kd) came to 400 nM.
Molecule B51 displayed a Kd of 14.4 nM. This Kd is about 28-fold lower than that of the molecule before.
Next, B52: 70.7 nM; B53: 40.8 nM.
For the molecule B54, the Kd is 5.64 nM.
For the molecule B55, the Kd was found to be 64.2 nM.
Next, B56: 192 nM.
